Reference: patent US20200347146A1 (I MAB BIOPHARMA US, published 2020)

T1: human CD73 protein (soluble) (human, UniProt P21589 27-549, limits assumed)
T1 construct: its species is not restated there; also called soluble CD73; 5'-nucleotidase
T1 sequence (looked up): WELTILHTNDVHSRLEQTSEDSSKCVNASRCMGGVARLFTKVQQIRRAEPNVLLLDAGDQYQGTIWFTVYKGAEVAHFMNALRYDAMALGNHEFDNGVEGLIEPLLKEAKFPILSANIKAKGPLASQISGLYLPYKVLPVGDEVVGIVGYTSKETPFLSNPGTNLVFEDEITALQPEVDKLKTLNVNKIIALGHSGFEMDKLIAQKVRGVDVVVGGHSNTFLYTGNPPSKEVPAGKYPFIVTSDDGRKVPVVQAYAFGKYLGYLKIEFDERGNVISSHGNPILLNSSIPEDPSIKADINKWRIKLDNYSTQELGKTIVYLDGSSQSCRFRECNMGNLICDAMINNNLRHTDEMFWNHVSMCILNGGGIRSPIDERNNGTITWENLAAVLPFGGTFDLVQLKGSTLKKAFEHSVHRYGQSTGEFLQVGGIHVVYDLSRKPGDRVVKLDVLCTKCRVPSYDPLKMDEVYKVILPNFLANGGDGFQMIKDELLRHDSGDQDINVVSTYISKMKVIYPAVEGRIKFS

T2: CD73 on the surface of A375 cells (UniProt P21589 27-549, limits assumed)
T2 construct: whole, on cells; also called cell surface CD73
T2 sequence (looked up): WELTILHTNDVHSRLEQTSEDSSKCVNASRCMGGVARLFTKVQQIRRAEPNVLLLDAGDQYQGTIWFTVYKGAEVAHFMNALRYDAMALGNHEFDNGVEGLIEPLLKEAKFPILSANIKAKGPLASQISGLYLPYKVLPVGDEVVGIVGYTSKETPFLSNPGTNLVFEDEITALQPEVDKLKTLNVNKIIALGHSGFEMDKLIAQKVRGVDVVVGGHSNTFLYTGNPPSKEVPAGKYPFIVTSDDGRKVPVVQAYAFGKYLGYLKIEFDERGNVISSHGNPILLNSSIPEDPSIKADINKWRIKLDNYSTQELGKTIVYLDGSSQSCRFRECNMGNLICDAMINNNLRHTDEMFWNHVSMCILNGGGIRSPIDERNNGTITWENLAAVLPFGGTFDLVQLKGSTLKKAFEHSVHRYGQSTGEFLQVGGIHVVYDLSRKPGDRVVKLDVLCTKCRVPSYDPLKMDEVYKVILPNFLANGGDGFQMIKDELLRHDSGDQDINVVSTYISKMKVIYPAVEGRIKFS


How the values were obtained:
[1] = target: T3, human PD-L1 on PD-L1 positive Raji cells (human, UniProt Q9NZQ7 19-290); test: flow cytometry on PD-L1 positive Raji cells, AF633 anti-human Fc detection
T3 construct: whole, on cells; also called cell surface PD-L1; PD-L1+ cells

[2] = target: T4, human PD-L1 protein (soluble) (human, UniProt Q9NZQ7 19-238, limits assumed); test: ELISA, human PD-L1 coated on the plate, anti-human Fc HRP detection
T4 construct: also called soluble PD-L1

[3] = target: T1, human CD73 protein (soluble); test: ELISA, human CD73 coated on the plate, anti-human Fc HRP detection
Experimental: Plated were coated with 100 μl of 1 μg/ml human CD73 protein overnight. The samples were blocked with 1% BSA in PBST for 1 hr, washed with PBST 3×. […] Binding with anti-hu Fc HRP was at 1:10000 in PBST, RT for 30 min, wash with PBST 3×. 100 μl of TMB and 100 μl of HCl were then added.

[4] = target: T2, CD73 on the surface of A375 cells; test: flow cytometry on A375 cells, AF633 anti-human Fc detection
Experimental: A375 cells that constitutively expressed CD73 on the surface were used in this example. 1×10⁵ A375 cells/well were suspended in FACS buffer. Antibodies diluted from 10 nM by 2-fold, 100 μl into each well, 4° C. for 30 min. The samples were washed with FACS buffer for 1×. AF633-anti hu Fc was added for binding for 30 min at 4° C., and washed with FACS buffer for 1×.

T4 sequence (Q9NZQ7 19-238 limits assumed): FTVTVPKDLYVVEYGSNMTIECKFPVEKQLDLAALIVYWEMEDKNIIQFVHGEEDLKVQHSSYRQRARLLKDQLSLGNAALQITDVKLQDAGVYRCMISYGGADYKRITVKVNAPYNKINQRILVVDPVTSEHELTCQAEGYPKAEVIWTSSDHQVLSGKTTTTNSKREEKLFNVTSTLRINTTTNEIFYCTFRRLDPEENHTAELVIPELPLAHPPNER
T3 sequence (Q9NZQ7 19-290): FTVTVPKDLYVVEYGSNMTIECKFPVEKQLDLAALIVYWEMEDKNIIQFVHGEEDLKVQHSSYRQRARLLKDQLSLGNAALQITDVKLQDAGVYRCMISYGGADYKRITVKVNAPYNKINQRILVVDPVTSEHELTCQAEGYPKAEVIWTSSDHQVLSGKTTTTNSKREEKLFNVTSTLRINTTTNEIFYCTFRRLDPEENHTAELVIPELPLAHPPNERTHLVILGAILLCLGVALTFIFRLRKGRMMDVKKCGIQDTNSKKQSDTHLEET

binding result [1]	binding result [2]	binding result [3]	binding result [4]	Binder
binds	binds			H12(PDL1) (monospecific anti-PD-L1 antibody with the H12 VH and H12 VL) (antibody, V domains shown, it was detected with anti-human Fc; also called PD-L1 antibody H12) VH: EVQLVESGGGLVQPGGSLRLSCAASGFTFSSYDMSWVRQAPGKSLEWVATISDAGGYIYYRDSVKGRFTISRDNAKNSLYLQMNSLRDEDTAVYICARELPWRYALDYWGQGTTVTVSS VL: DIQMTQSPSSLSASVGDRVTITCKASQDVTPAVAWYQQKPGKAPKLLIYSTSSRYTGVPSRFSGSGSGTDFTFTISSLQPEDIATYYCQQHYTTPLTFGQGTKLEIK
		binds	binds	hu309 (monospecific anti-CD73 antibody with the 309 VH and 309 VL) (antibody, V domains shown, it was detected with anti-human Fc) VH: EVQLQESGPGLVKPSETLSLTCAVSGYSITSGYYWNWIRQPPGKKLEWMGYINYGGSNGYNPSLKSRITISRDTSKNQFSLKLSSVTAADTAVYYCARDYDAYYEALDDWGQGTTVTVSS VL: EIVLSQSPATLSLSPGERATLSCRASSRVNYMHWYQQKPGQSPRPWISATSNLASGVPARFSGSGSGTSYTLTISSLEPEDFAVYYCQQWSSNPPTFGGGTKVEIK
